{
  "source": "paper doi:10.1101/2021.10.06.463369",
  "binders": {"B1": {"name": "F16 (dsDNA)", "DNA 1": "ACTCATAAAATATGTCTTTGATTTTTTGTAGTAAT", "DNA 2": "ATTACTACAAAAAATCAAAGACATATTTTATGAGT"}},
  "molecular_target": "T1, AITR6-His (Arabidopsis thaliana, UniProt Q9FGW7 1-302)",
  "T1 sequence": "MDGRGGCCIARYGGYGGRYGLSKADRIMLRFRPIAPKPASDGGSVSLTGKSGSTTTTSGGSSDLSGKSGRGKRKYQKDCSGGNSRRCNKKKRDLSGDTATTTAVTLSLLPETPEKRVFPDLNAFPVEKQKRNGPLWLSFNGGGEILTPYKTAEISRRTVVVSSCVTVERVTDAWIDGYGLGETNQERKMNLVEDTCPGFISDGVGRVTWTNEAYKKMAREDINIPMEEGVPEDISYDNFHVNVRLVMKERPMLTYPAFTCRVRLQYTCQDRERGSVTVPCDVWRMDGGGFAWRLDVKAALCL",
  "test": "EMSA",
  "data": [
    {"binder": "B1", "values": [
      {"measurement": "binding result", "value": "no binding"}
    ]}
  ]
}
